Results taken from publication PMC2755179 (Autophagy, 2008).

T1: γHV68 M11 (murine γ-herpesvirus 68, UniProt P89884 1-136)
T1 sequence: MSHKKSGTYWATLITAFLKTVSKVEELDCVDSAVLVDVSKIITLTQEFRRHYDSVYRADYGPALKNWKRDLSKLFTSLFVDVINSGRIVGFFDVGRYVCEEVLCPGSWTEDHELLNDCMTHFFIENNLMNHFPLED

T2: KSHV Bcl-2 (Kaposi's sarcoma-associated HV, UniProt P90504)
T2 sequence: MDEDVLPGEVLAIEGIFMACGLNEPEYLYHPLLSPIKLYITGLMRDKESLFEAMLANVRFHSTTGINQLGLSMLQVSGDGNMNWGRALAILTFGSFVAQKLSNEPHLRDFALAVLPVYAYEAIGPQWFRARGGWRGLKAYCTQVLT


Legend:
Assay in all cases: ITC
cellular Bcl-2 = cellular Bcl-2 (UniProt P10415 1-211)
γHV68 M11 = target: T1, γHV68 M11
KSHV Bcl-2 = target: T2, KSHV Bcl-2

cellular Bcl-2, sequence (P10415 1-211): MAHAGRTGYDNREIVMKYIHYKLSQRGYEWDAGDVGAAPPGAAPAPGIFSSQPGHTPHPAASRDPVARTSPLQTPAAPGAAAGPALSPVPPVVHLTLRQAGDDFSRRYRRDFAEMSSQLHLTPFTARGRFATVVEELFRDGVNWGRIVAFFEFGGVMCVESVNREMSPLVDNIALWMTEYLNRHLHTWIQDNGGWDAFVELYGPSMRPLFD

Binder | Kd (cellular Bcl-2) [µM] | Kd (γHV68 M11) [µM] | Kd (KSHV Bcl-2) [µM]
MBP•Beclin 1(1–135)•His6 (domain or fragment, human, UniProt Q14457 1-135, looked up) MEGSKTSNNSTMQVSFVCQRCSQPLKLDTSFKILDRVTIQELTAPLLTTAQAKPGETQEEETNSGEEPFIETPRQDGVSRRFIPPARMMSTESANSFTLIGEASDGGTMENLSRRLKVTGDLFDIMSGQTDVDHP | 8.6 | 0.2 | 54.2
DGGTMENLSRRLKVTGDLFDIMSGQT (peptide, UniProt Q14457 105-130, looked up) [Beclin 1 BH3 domain] | 8 | 1.1 | 13.3
